Numbering of substitutions follows the chain as printed. In names and notes the source's numbering stands. Read-outs that look alike come from different tables or passages of the source.
B1: W3XX115-T2U0.E44-26.uIgG4V1 (Fc fusion)
chain: APTSSSTKKTQLQLEHLLLDLQMILNGINNYKNPKLTRMLTFKFYMPKKATELKHLQCLEEELKPLEEVLNLAQSKNFHLRPRDLISNINVIVLELKGSETTFMCEYADETATIVEFLNRWITFCQSILESKYGPPCPPCPAPEFLGGPSVFLFPPKPKDTLMISRTPEVTCVVVDVSQEDPEVQFNWYVDGVEVHNAKTKPREEQFNSTYRVVSVLTVLHQDWLNGKEYKCKVSNKGLPSSIEKTISKAKGQPREPQVYTLPPCQEEMTKNQVSLWCLVKGFYPSDIAVEWESNGQPENNYKTTPPVLDSDGSFFLYSRLTVDKSRWQEGNVFSCSVMHEALHNHYTQKSLSLSLG
heavy: EIQLQQSGPELVKPGASVKVSCKASGYSFTDYNMYWVKQSHGESLEWIGYIDPYNGGTRYNQKFKGKATLTVDKSSSTAFMHLNSLTSEDSAVYYCARNGHWDGAWFAYWGQGTLVTVSAASTKGPSVFPLAPCSRSTSESTAALGCLVKDYFPEPVTVSWNSGALTSGVHTFPAVLQSSGLYSLSSVVTVPSSSLGTKTYTCNVDHKPSNTKVDKRVESKYGPPCPPCPAPEFLGGPSVFLFPPKPKDTLMISRTPEVTCVVVDVSQEDPEVQFNWYVDGVEVHNAKTKPREEQFNSTYRVVSVLTVLHQDWLNGKEYKCKVSNKGLPSSIEKTISKAKGQPREPQVCTLPPSQEEMTKNQVSLSCAVKGFYPSDIAVEWESNGQPENNYKTTPPVLDSDGSFFLVSRLTVDKSRWQEGNVFSCSVMHEALHNHYTQKSLSLSLG
light: DIQMNQSPSSLSASLGDTITITCHASQNINVWLSWYQQKPGNIPKLLIYKASNLHTGVPSRFSGSRSGTGFTLTISSLQPEDIATYYCHQGQSYPFTFGSGTKLEIKRTVAAPSVFIFPPSDEQLKSGTASVVCLLNNFYPREAKVQWKVDNALQSGNSQESVTEQDSKDSTYSLSSTLTLSKADYEKHKVYACEVTHQGLSSPVTKSFNRGEC
notes: IL-2 del STLT and I129L; E44 format, IgG4
B2: W3XX115-T2U0.E44-9.uIgG4V1 (Fc fusion)
chain: APTSSSTKKTQLQLEHLLLDLQMILNGINNYKNPKLTRMLTFKFYMPKKATELKHLQCLEEELKPLEEVLNLAQSKNFHLRPRDLISNINVIVLELKGSETTFMCEYADETATIVEFLNRWITFCQESKYGPPCPPCPAPEFLGGPSVFLFPPKPKDTLMISRTPEVTCVVVDVSQEDPEVQFNWYVDGVEVHNAKTKPREEQFNSTYRVVSVLTVLHQDWLNGKEYKCKVSNKGLPSSIEKTISKAKGQPREPQVYTLPPCQEEMTKNQVSLWCLVKGFYPSDIAVEWESNGQPENNYKTTPPVLDSDGSFFLYSRLTVDKSRWQEGNVFSCSVMHEALHNHYTQKSLSLSLG
heavy: B1 heavy
light: B1 light
notes: IL-2 with C-terminal 7 aa (SIISTLT) deleted; E44 format, IgG4
B3: W3XX115-T2U0.E44-5.uIgG4V1 (Fc fusion)
chain: APTSSSTKKTQLQLEHLLLDLQMILNGINNYKNPKLTRMLTFKFYMPKKATELKHLQCLEEELKPLEEVLNLAQSKNFHLRPRDLISNINVIVLELKGSETTFMCEYADETATIVEFLNRWITFCQSIISESKYGPPCPPCPAPEFLGGPSVFLFPPKPKDTLMISRTPEVTCVVVDVSQEDPEVQFNWYVDGVEVHNAKTKPREEQFNSTYRVVSVLTVLHQDWLNGKEYKCKVSNKGLPSSIEKTISKAKGQPREPQVYTLPPCQEEMTKNQVSLWCLVKGFYPSDIAVEWESNGQPENNYKTTPPVLDSDGSFFLYSRLTVDKSRWQEGNVFSCSVMHEALHNHYTQKSLSLSLG
heavy: B1 heavy
light: B1 light
notes: IL-2 with C-terminal 3 aa (TLT) deleted; E44 format, IgG4
B4: W3XX115-T2U0.E44-27.uIgG4V1 (Fc fusion)
chain: B1 chain with L129V
heavy: B1 heavy
light: B1 light
notes: IL-2 del STLT and I129V; E44 format, IgG4
B5: W3XX115-T2U0.E44-30.uIgG4V1 (Fc fusion)
chain: B1 chain with L129T
heavy: B1 heavy
light: B1 light
notes: IL-2 del STLT and I129T; E44 format, IgG4
B6: W3XX115-T2U0.E44-29.uIgG4V1 (Fc fusion)
chain: B1 chain with L129S
heavy: B1 heavy
light: B1 light
notes: IL-2 del STLT and I129S; E44 format, IgG4
B7: W3XX115-T2U0.E44-28.uIgG4V1 (Fc fusion)
chain: B1 chain with L129A
heavy: B1 heavy
light: B1 light
notes: IL-2 del STLT and I129A; E44 format, IgG4

How the values were obtained:
[1] = target: T1, Human IL-2Rβ/γ (intermediate affinity IL-2 receptor) (human, UniProt P14784 27-551; P31785 23-369); assay: FACS, HH cells
T1 construct: whole, on cells; also called IL-2Rβ/γc; IL-2Rβ (CD122) and γ (CD132)
T1 sequence (looked up) 1: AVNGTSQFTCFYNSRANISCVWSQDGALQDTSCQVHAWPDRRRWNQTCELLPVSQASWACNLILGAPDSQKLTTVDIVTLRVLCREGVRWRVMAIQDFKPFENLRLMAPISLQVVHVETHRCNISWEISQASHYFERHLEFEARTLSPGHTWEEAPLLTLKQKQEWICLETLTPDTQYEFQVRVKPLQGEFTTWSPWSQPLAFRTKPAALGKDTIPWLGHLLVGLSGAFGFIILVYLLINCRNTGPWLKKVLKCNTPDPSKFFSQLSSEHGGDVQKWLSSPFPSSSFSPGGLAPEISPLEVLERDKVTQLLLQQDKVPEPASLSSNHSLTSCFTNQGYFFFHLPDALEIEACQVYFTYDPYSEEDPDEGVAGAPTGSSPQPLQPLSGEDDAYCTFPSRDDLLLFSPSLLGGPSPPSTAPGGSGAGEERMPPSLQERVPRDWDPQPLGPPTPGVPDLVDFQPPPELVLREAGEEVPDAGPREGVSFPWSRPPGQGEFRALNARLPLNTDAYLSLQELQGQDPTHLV
T1 sequence (looked up) 2: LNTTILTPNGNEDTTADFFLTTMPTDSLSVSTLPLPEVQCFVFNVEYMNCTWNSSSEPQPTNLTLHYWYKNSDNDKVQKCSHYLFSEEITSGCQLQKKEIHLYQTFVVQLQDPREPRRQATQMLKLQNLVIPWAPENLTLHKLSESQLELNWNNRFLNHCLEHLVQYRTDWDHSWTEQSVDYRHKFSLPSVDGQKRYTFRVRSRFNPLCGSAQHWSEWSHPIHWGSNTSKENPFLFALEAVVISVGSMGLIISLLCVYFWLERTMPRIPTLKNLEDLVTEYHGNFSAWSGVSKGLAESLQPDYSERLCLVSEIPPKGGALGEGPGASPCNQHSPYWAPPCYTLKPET
Description: (§1) Human cutaneous T cell lymphoma HH cells, malignant non-Hodgkin's lymphoma NK92 cells and cutaneous T cell lymphoma MJ20 cells were used for binding assay. They both constitutively express IL-2Rβ (CD122) and […] (CD132), and NK92 and MJ20 also expresses IL-2Rα (CD25). HH, NK92 and MJ20 cells were cultured following ATCC guidance, then transferred to a 96-plate for binding analysis. Cells were incubated with IL-2/Fc fusion proteins at the indicated concentrations for 30 min at 4° C. to avoid internalization. Binding was detected by 2nd antibody of PE-anti-human Fc at 4° C. for another 30 min. The median fluorescence intensity (MFI) on HH and NK92 cells was measured using FACS.

[2] = target: T2, Human IL-2Rα/β/γ complex (high affinity IL-2 receptor) (human, UniProt P01589 22-272; P14784 27-551; P31785 23-369); assay: FACS, MJ20 cells
T2 construct: whole, on cells
T2 sequence (looked up) 1: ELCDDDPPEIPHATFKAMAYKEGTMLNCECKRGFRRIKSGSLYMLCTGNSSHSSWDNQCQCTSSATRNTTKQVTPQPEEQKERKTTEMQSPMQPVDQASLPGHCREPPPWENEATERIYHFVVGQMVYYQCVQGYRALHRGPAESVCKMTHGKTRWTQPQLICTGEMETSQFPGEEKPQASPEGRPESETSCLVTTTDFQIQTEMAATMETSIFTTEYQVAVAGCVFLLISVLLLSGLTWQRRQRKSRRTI
T2 sequence (looked up) 2: T1 sequence (looked up) 1
T2 sequence (looked up) 3: T1 sequence (looked up) 2
Description: as §1
(§2) Affinity of IL-2 variants to IL-2Rα/β/γ supported the same results (FIG. 8 and Table 7). […] And T2U0.E44-26, T2U0.E44-27, T2U0.E44-29 and T2U0.E44-30 induced hundreds to thousands affinity reduction in Treg compared to T2U0.E44-1. Binding curves in MJ20 cells (IL-2Rα/β/γ) also achieved similar trend (FIG. 8b). As a result, the method of C-terminal truncation and substitution of 129 was available to achieve IL-2Rβγ attenuated IL-2 variants.

[3] = target: T1, Human IL-2Rβ/γ (intermediate affinity …); assay: cell-based or functional assay
[4] = target: T2, Human IL-2Rα/β/γ complex (high affinity …); assay: cell-based or functional assay
[5] = target: T1, Human IL-2Rβ/γ (intermediate affinity …); assay: FACS, HH cells; EC50 fold vs T2U0.E44-1
Description: as §1

[6] = target: T2, Human IL-2Rα/β/γ complex (high affinity …); assay: FACS, MJ20 cells; EC50 fold vs T2U0.E44-1
Description: as §1, §2

[7] = target: T1, Human IL-2Rβ/γ (intermediate affinity …); assay: FACS, HH cells; remark: listed apart in the source
Description: as §1

[8] = target: T2, Human IL-2Rα/β/γ complex (high affinity …); assay: FACS, NK92 cells
Description: as §1

[9] = target: T1, Human IL-2Rβ/γ (intermediate affinity …); assay: cell-based or functional assay; remark: listed apart in the source
[10] = target: T2, Human IL-2Rα/β/γ complex (high affinity …); assay: cell-based or functional assay; remark: listed apart in the source
[11] = target: T1, Human IL-2Rβ/γ (intermediate affinity …); assay: FACS, HH cells; EC50 fold vs T2U0.E44-1; remark: listed apart in the source
Description: as §1

[12] = target: T2, Human IL-2Rα/β/γ complex (high affinity …); assay: FACS, NK92 cells; EC50 fold vs T2U0.E44-1
Description: as §1

Binder	EC50 [1] [nM]	EC50 [2] [nM]	Potency in human CD8+ T EC50 [3] [nM]	Potency reduction (CD8+ T) [3] [fold]	Potency in human Treg EC50 [4] [nM]	Potency reduction (Treg) [4] [fold]	Affinity reduction [5] [fold]	Affinity reduction [6] [fold]	EC50 [7] [nM]	EC50 [8] [nM]	Potency in human CD8+ T EC50 [9] [nM]	Potency reduction (CD8+ T) [9] [fold]	Potency in human Treg EC50 [10] [nM]	Potency reduction (Treg) [10] [fold]	Affinity reduction [11] [fold]	Affinity reduction [12] [fold]
B1	993	42.8	649	32.5	1.16	460	18.5	3.1								
B2									54.5	8.52	96.5	10.1	1.44	55.6	1.76	1.55
B3									50.1	14.5	18	1.89	4.62	179	1.62	2.63
B4	2740	75.3	371	18.5	1.85	737	51.1	5.4								
B5		183	493	24.7	2.64	1050		13								
B6	1550	233	406	20.3	3.76	1490	28.8	17								
B7	839	103	446	22.3	0.095	37.6	15.6	7.4								

Source: patent publication US20250000946A1 (WUXI BIOLOGICS IRELAND, published 2025)
